The record followed here is the supplement of paper PMC11246515.

This data set can be described thus: total protein half-life in vivo (active degradation + dilution); higher = more stable protein.
[1] abbreviates: E. coli NCM3722 delta-clpP delta-lon delta-hslV, growth: N-lim chemostat, doubling time 6 h.
The mark [2] stands for this setting: E. coli NCM3722 delta-clpP, growth: N-lim chemostat, doubling time 6 h.
Setting [3] is: E. coli NCM3722 delta-hslV, growth: N-lim chemostat, doubling time 6 h.
Setting [4] is: E. coli NCM3722 delta-lon, growth: N-lim chemostat, doubling time 6 h.
[5] abbreviates: E. coli NCM3722 delta-smpB, growth: N-lim chemostat, doubling time 6 h.
The mark [6] stands for this setting: wild type E. coli NCM3722, growth: C-lim chemostat, doubling time 3 h.
The mark [7] stands for this setting: wild type E. coli NCM3722, growth: C-lim chemostat, doubling time 6 h.
Where [8] appears, read: wild type E. coli NCM3722, growth: C-lim chemostat, doubling time 12 h.
[9] abbreviates: wild type E. coli NCM3722, growth: N-lim chemostat, doubling time 6 h.
Setting [10] is: wild type E. coli NCM3722, growth: N-lim chemostat, doubling time 12 h.
[11] abbreviates: wild type E. coli NCM3722, growth: P-lim chemostat, doubling time 6 h.
Where [12] appears, read: wild type E. coli NCM3722, growth: P-lim chemostat, doubling time 12 h.

± gives the standard deviation of the averaged measurements. A value given as a limit tells only on which side of the number the result lay.

With “MQKDALNNVHITDEQVLMTPEQLKAAFPLSLQQEAQIADSRKSISDIIAGRDPRLLVVCGPCSIHDPETALEYARRFKALAAEVSDSLYLVMRVYFEKPRTTVGWKGLINDPHMDGSFDVEAGLQIARKLLLELVNMGLPLATEALDPNSPQYLGDLFSWSAIGARTTESQTHREMASGLSMPVGFKNGTDGSLATAINAMRAAAQPHRFVGINQAGQVALLQTQGNPDGHVILRGGKAPNYSPADVAQCEKEMEQAGLRPSLMVDCSHGNSNKDYRRQPAVAESVVAQIKDGNRSIIGLMIESNIHEGNQSSEQPRSEMKYGVSVTDACISWEMTDALLREIHQDLNGQLTARVA”, the “total protein half-life in vivo” value was 3.13 ± 0.21 h under setting [1]; 1.05 ± 0.12 h under setting [2]; 0.859 ± 0.25 h under setting [3]; 3.06 ± 3 h under setting [4]; 0.903 ± 0.017 h under setting [5]; 2.24 ± 0.07 h under setting [6]. The “total protein half-life in vivo” value was found to be 2.79 ± 0.37 h under setting [7]; 3.84 ± 0.57 h under setting [8]; 0.94 h under setting [9]; 1.81 h under setting [10]; 1.57 h under setting [11]; 3.5 ± 0.6 h under setting [12].

“MNLDDKSLFLDAMEDVQPLKRATDVHWHPTRNQRAPQRIDTLQLDNFLTTGFLDIIPLSQPLEFRREGLQHGVLDKLRSGKYPQQASLNLLRQPVEECRKMVFSFIQQALADGLRNVLIIHGKGRDDKSHANIVRSYVARWLTEFDDVQAYCTALPHHGGSGACYVALRKTAQAKQENWERHAKRSR”: the “total protein half-life in vivo” value runs as follows: under setting [2], 3.15 ± 0.09 h; under setting [3], 0.92 ± 0.056 h; under setting [5], 0.889 h; under setting [6], 0.985 h; under setting [7], 1.35 h; under setting [8], 1.42 h. In addition, the “total protein half-life in vivo” value is, setting by setting: under setting [9], 1.06 ± 0.055 h; under setting [10], 1.33 ± 0.064 h; under setting [11], 1.28 h; under setting [12], 1.8 ± 0.54 h.

Consider “MELHCPQCQHVLDQDNGHARCRSCGEFIEMKALCPDCHQPLQVLKACGAVDYFCQHGHGLISKKRVEFVLA”, for which the “total protein half-life in vivo” value reads like this: under setting [1], 5.52 ± 2.3 h; under setting [2], 4.63 h; under setting [8], 4.37 h; under setting [9], 6.43 h; under setting [10], 5.69 h; under setting [12], over 16 h.

As for “MLSLYEKIKIRLIILFLLAALSFIGLFFIINYQLVSERAVKRADSRFELIQKNVGYFFKDIERSALTLKDSLYLLKNTEEIQRAVILKMEMMPFLDSVGLVLDDNKYYLFSRRANDKIVVYHQEQVNGPLVDESGRVIFADFNPSKRPWSVASDDSNNSWNPAYNCFDRPGKKCISFTLHINGKDHDLLAVDKIHVDLNWRYLNEYLDQISANDEVLFLKQGHEIIAKNQLAREKLIIYNSEGNYNIIDSVDTEYIEKTSAVPNNALFEIYFYYPGGNLLNASDKLFYLPFAFIIIVLLVVYLMTTRVFRRQFSEMTELVNTLAFLPDSTDQIEALKIREGDAKEIISIKNSIAEMKDAEIERSNKLLSLISYDQESGFIKNMAIIESNNNQYLAVGIIKLCGLEAVEAVFGVDERNKIVRKLCQRIAEKYAQCCDIVTFNADLYLLLCRENVQTFTRKIAMVNDFDSSFGYRNLRIHKSAICEPLQGENAWSYAEKLKLAISSIRDHMFSEFIFCDDAKLNEIEENIWIARNIRHAMEIGELFLVYQPIVDINTRAILGAEALCRWVSAERGIISPLKFITIAEDIGFINELGYQIIKTAMGEFRHFSQRASLKDDFLLHINVSPWQLNEPHFHERFTTIMKENGLKANSLCVEITETVIERINEHFYLNIEQLRKQGVRISIDDFGTGLSNLKRFYEINPDSIKVDSQFTGDIFGTAGKIVRIIFDLARYNRIPVIAEGVESEDVARELIKLGCVQAQGYLYQKPMPFSAWDKSGKLVKE”, the “total protein half-life in vivo” value under setting [1] came to 5.7 ± 1.7 h; the “total protein half-life in vivo” value under setting [2] amounted to 7.04 ± 0.45 h; the “total protein half-life in vivo” value under setting [4] is 6.67 ± 0.23 h; the “total protein half-life in vivo” value under setting [5] came to 6.334 ± 0.039 h; the “total protein half-life in vivo” value under setting [6] amounted to 3 ± 0.23 h; the “total protein half-life in vivo” value under setting [7] was found to be 5.9 ± 0.19 h. For the same sequence, the “total protein half-life in vivo” value reads like this: under setting [9], 5.88 ± 0.38 h; under setting [10], 12.8 ± 1.2 h; under setting [11], 6.03 ± 0.13 h; under setting [12], 11.8 ± 1 h.

For the sequence “MITIRDVARQAGVSVATVSRVLNNSTLVSADTREAVMKAVSELDYRPNANAQALATQVSDTIGVVVMDVSDAFFGALVKAVDLVAQQHQKYVLIGNSYHEAEKERHAIEVLIRQRCNALIVHSKALSDDELAQFMDNIPGMVLINRVVPGYAHRCVCLDNLSGARMATRMLLNNGHQRIGYLSSSHGIEDDAMRKAGWMSALKEQDIIPPESWIGAGTPDMPGGEAAMVELLGRNLQLTAVFAYNDNMAAGALTALKDNGIAIPLHLSIIGFDDIPIARYTDPQLTTVRYPIASMAKLATELALQGAAGNIDPRASHCFMPTLVRRHSVATRQNAAAITNSTNQAM”, the “total protein half-life in vivo” value runs as follows: under setting [1], 5.93 h; under setting [2], 3.96 h; under setting [7], 4.74 ± 0.55 h; under setting [8], 8.13 ± 1.9 h; under setting [12], 10.9 h.

For the sequence “MFTGSIVAIVTPMDEKGNVCRASLKKLIDYHVASGTSAIVSVGTTGESATLNHDEHADVVMMTLDLADGRIPVIAGTGANATAEAISLTQRFNDSGIVGCLTVTPYYNRPSQEGLYQHFKAIAEHTDLPQILYNVPSRTGCDLLPETVGRLAKVKNIIGIKEATGNLTRVNQIKELVSDDFVLLSGDDASALDFMQLGGHGVISVTANVAARDMAQMCKLAAEGHFAEARVINQRLMPLHNKLFVEPNPIPVKWACKELGLVATDTLRLPMTPITDSGRETVRAALKHAGLL [P0A6L2]”, the “total protein half-life in vivo” value was 4.22 ± 0.18 h under setting [1]; 3.67 ± 0.84 h under setting [2]; 3.03 ± 0.44 h under setting [3]; 4.05 ± 0.09 h under setting [4]; 3.42 ± 0.18 h under setting [5]; 3.09 ± 0.099 h under setting [6]. Also, the “total protein half-life in vivo” value is, setting by setting: under setting [7], 5.47 ± 0.57 h; under setting [8], 11.4 ± 0.21 h; under setting [9], 3.43 ± 0.14 h; under setting [10], 5.28 ± 0.1 h; under setting [11], 5.72 ± 0.24 h; under setting [12], 11.1 ± 0.94 h.

For “MLLPWLILIPFIGGFLCWQTERFGVKVPRWIALITMGLTLALSLQLWLQGGYSLTQSAGIPQWQSEFDMPWIPRFGISIHLAIDGLSLLMVVLTGLLGVLAVLCSWKEIEKYQGFFHLNLMWILGGVIGVFLAIDMFLFFFFWEMMLVPMYFLIALWGHKASDGKTRITAATKFFIYTQASGLVMLIAILALVFVHYNATGVWTFNYEELLNTPMSSGVEYLLMLGFFIAFAVKMPVVPLHGWLPDAHSQAPTAGSVDLAGILLKTAAYGLLRFSLPLFPNASAEFAPIAMWLGVIGIFYGAWMAFAQTDIKRLIAYTSVSHMGFVLIAIYTGSQLAYQGAVIQMIAHGLSAAGLFILCGQLYERIHTRDMRMMGGLWSKMKWLPALSLFFAVATLGMPGTGNFVGEFMILFGSFQVVPVITVISTFGLVFASVYSLAMLHRAYFGKAKSQIASQELPGMSLRELFMILLLVVLLVLLGFYPQPILDTSHSAIGNIQQWFVNSVTTTRP [P0AFE8]”, the “total protein half-life in vivo” value is, setting by setting: under setting [1], 7.36 ± 0.89 h; under setting [2], 6.54 ± 0.28 h; under setting [3], 5.66 ± 0.85 h; under setting [4], 6.41 ± 0.17 h; under setting [5], 6.818 ± 0.033 h; under setting [10], 12.04 ± 0.017 h. Further, the “total protein half-life in vivo” value under setting [11] was determined as 6.24 ± 0.25 h.
